In the supplement of paper PMC11246515:
± gives the standard deviation of the averaged measurements.

Experiment: total protein half-life in vivo (active degradation + dilution); higher = more stable protein
[1] = E. coli NCM3722 delta-clpP delta-lon delta-hslV, growth: N-lim chemostat, doubling time 6 h
[2] = E. coli NCM3722 delta-clpP, growth: N-lim chemostat, doubling time 6 h
[3] = E. coli NCM3722 delta-hslV, growth: N-lim chemostat, doubling time 6 h
[4] = E. coli NCM3722 delta-lon, growth: N-lim chemostat, doubling time 6 h
[5] = E. coli NCM3722 delta-smpB, growth: N-lim chemostat, doubling time 6 h
[6] = wild type E. coli NCM3722, growth: C-lim chemostat, doubling time 3 h
[7] = wild type E. coli NCM3722, growth: C-lim chemostat, doubling time 6 h
[8] = wild type E. coli NCM3722, growth: C-lim chemostat, doubling time 12 h
[9] = wild type E. coli NCM3722, growth: N-lim chemostat, doubling time 6 h
[10] = wild type E. coli NCM3722, growth: N-lim chemostat, doubling time 12 h
[11] = wild type E. coli NCM3722, growth: P-lim chemostat, doubling time 6 h
[12] = wild type E. coli NCM3722, growth: P-lim chemostat, doubling time 12 h

| Sequence | total protein half-life in vivo [1] | total protein half-life in vivo [2] | total protein half-life in vivo [3] | total protein half-life in vivo [4] | total protein half-life in vivo [5] | total protein half-life in vivo [6] | total protein half-life in vivo [7] | total protein half-life in vivo [8] | total protein half-life in vivo [9] | total protein half-life in vivo [10] | total protein half-life in vivo [11] | total protein half-life in vivo [12] |
| --- | --- | --- | --- | --- | --- | --- | --- | --- | --- | --- | --- | --- |
| MFTRVANFCRKVLSREESEAEQAVARPQVTVIPREQHAISRKDISENALKVMYRLNKAGYEAWLVGGGVRDLLLGKKPKDFDVTTNATPEQVRKLFRNCRLVGRRFRLAHVMFGPEIIEVATFRGHHEGNVSDRTTSQRGQNGMLLRDNIFGSIEEDAQRRDFTINSLYYSVADFTVRDYVGGMKDLKDGVIRLIGNPETRYREDPVRMLRAVRFAAKLGMRISPETAEPIPRLATLLNDIPPARLFEESLKLLQAGYGYETYKLLCEYHLFQPLFPTITRYFTENGDSPMERIIEQVLKNTDTRIHNDMRVNPAFLFAAMFWYPLLETAQKIAQESGLTYHDAFALAMNDVLDEACRSLAIPKRLTTLTRDIWQLQLRMSRRQGKRAWKLLEHPKFRAAYDLLALRAEVERNAELQRLVKWWGEFQVSAPPDQKGMLNELDEEPSPRRRTRRPRKRAPRREGTA [P0ABF1] | 6.05 ± 0.76 h | 5.89 ± 0.71 h | 3.67 ± 0.17 h | 3.728 ± 0.025 h | 3.45 ± 0.18 h | 2.324 ± 0.019 h | 4.37 ± 0.12 h | 6.58 ± 0.41 h | 3.84 ± 0.079 h | 6.19 ± 0.3 h | 3.92 ± 0.57 h | 7.24 ± 0.26 h |
| MPACELRPATQYDTDAVYALICELKQAEFDHHAFRVGFNANLRDPNMRYHLALLDGEVVGMIGLHLQFHLHHVNWIGEIQELVVMPQARGLNVGSKLLAWAEEEARQAGAEMTELSTNVKRHDAHRFYLREGYEQSHFRFTKAL | 4.67 ± 0.61 h | 2.53 ± 0.34 h | 1.8 ± 0.17 h | 2.76 ± 0.12 h | 1.58 ± 0.037 h | 1.61 ± 0.22 h | 2.49 ± 0.34 h | 2.45 h | 1.93 ± 0.3 h | 2.54 ± 0.055 h | 3.65 ± 0.24 h | 6.57 ± 0.13 h |
| MQESIQLVIDSLPFLLKGAGYTLQLSIGGMFFGLLLGFILALMRLSPIWPVRWLARFYISIFRGTPLIAQLFMIYYGLPQFGIELDPIPSAMIGLSLNTAAYAAETLRAAISSIDKGQWEAAASIGMTPWQTMRRAILPQAARVALPPLSNSFISLVKDTSLAATIQVPELFRQAQLITSRTLEVFTMYLAASLIYWIMATVLSTLQNHFENQLNRQEREPK [P0AFT2] | – | 7.13 h | 7.23 h | – | – | 3.14 h | 5.37 ± 0.3 h | 15.7 ± 0.28 h | 6.07 ± 0.14 h | 11.2 ± 4.2 h | 6 ± 0.41 h | 11.9 ± 0.19 h |
| MNIELRHLRYFVAVAEELHFGRAAARLNISQPPLSQQIQALEQQIGARLLARTNRSVLLTAAGKQFLADSRQILSMVDDAAARAERLHQGEAGELRIGFTSSAPFIRAVSDTLSLFRRDYPDVHLQTREMNTREQIAPLIEGTLDMGLLRNTALPESLEHAVIVHEPLMAMIPHDHPLANNPNVTLAELAKEPFVFFDPHVGTGLYDDILGLMRRYHLTPVITQEVGEAMTIIGLVSAGLGVSILPASFKRVQLNEMRWVPIAEEDAVSEMWLVWPKHHEQSPAARNFRIHLLNALR | 6 ± 0.22 h | 5.84 ± 0.3 h | 6.28 ± 0.17 h | 5.5 ± 0.23 h | 5.65 ± 0.16 h | – | 6.3 ± 1.5 h | 11.97 ± 0.024 h | 6.8 ± 0.96 h | 12.5 ± 1.8 h | 5.12 ± 0.62 h | 13.3 ± 0.86 h |
| MSTKPLFLLRKAKKSSGEPDVVLWASNDFESTCATLDYLIVKSGKKLSSYFKAVATNFPVVNDLPAEGEIDFTWSERYQLSKDSMTWELKPGAAPDNAHYQGNTNVNGEDMTEIEENMLLPISGQELPIRWLAQHGSEKPVTHVSRDGLQALHIARAEELPAVTALAVSHKTSLLDPLEIRELHKLVRDTDKVFPNPGNSNLGLITAFFEAYLNADYTDRGLLTKEWMKGNRVSHITRTASGANAGGGNLTDRGEGFVHDLTSLARDVATGVLARSMDLDIYNLHPAHAKRIEEIIAENKPPFSVFRDKFITMPGGLDYSRAIVVASVKEAPIGIEVIPAHVTEYLNKVLTETDHANPDPEIVDIACGRSSAPMPQRVTEEGKQDDEEKPQPSGTTAVEQGEAETMEPDATEHHQDTQPLDAQSQVNSVDAKYQELRAELHEARKNIPSKNPVDDDKLLAASRGEFVDGISDPNDPKWVKGIQTRDCVYQNQPETEKTSPDMNQPEPVVQQEPEIACNACGQTGGDNCPDCGAVMGDATYQETFDEESQVEAKENDPEEMEGAEHPHNENAGSDPHRDCSDETGEVADPVIVEDIEPGIYYGISNENYHAGPGISKSQLDDIADTPALYLWRKNAPVDTTKTKTLDLGTAFHCRVLEPEEFSNRFIVAPEFNRRTNAGKEEEKAFLMECASTGKTVITAEEGRKIELMYQSVMALPLGQWLVESAGHAESSIYWEDPETGILCRCRPDKIIPEFHWIMDVKTTADIQRFKTAYYDYRYHVQDAFYSDGYEAQFGVQPTFVFLVASTTIECGRYPVEIFMMGEEAKLAGQQEYHRNLRTLSDCLNTDEWPAIKTLSLPRWAKEYAND | 6.07 ± 0.4 h | 3.46 h | – | – | – | 3.65 ± 0.15 h | 4.2 ± 0.11 h | 5.8 ± 1.9 h | – | > 16 h | 2.43 h | 4.82 h |
